Results: the Immune Epitope Database (IEDB)
Blank lines part the entries; values can stand above or below the sequence they belong to.

Key:
HLA-B*83:01 = experiment: IEDB peptide-MHC binding, purified MHC/competitive/fluorescence; filed as Kd, often an IC50 or EC50 that approximates it; ≥ and ≤ were set here for values at or beyond the usual limits of such assays
HLA-B*45:06 = experiment: as above
HLA-B*15:42 = experiment: as above
HLA-B*51:01 [1] = experiment: IEDB peptide-MHC binding, purified MHC/direct/fluorescence; filed as Kd, often an IC50 or EC50 that approximates it; ≥ and ≤ were set here for values at or beyond the usual limits of such assays
HLA-B*07:02 = experiment: as above
HLA-B*15:01 [2] = experiment: IEDB peptide-MHC binding, purified MHC/competitive/fluorescence; filed as Kd, often an IC50 or EC50 that approximates it; ≥ and ≤ were set here for values at or beyond the usual limits of such assays
HLA-B*08:01 [3] = experiment: IEDB peptide-MHC binding, purified MHC/direct/fluorescence; filed as Kd, often an IC50 or EC50 that approximates it; ≥ and ≤ were set here for values at or beyond the usual limits of such assays
HLA-B*08:02 = experiment: as above; details: source organism: Vibrio vulnificus CMCP6
HLA-B*15:03 = experiment: IEDB peptide-MHC binding, purified MHC/competitive/radioactivity; filed as Kd, often an IC50 or EC50 that approximates it; ≥ and ≤ were set here for values at or beyond the usual limits of such assays
HLA-A*30:01 = experiment: as above
HLA-B*08:01 [4] = experiment: as above
HLA-A*32:01 = experiment: as above
HLA-B*15:01 [5] = experiment: as above
HLA-A*26:01 = experiment: IEDB peptide-MHC binding, purified MHC/competitive/fluorescence; filed as Kd, often an IC50 or EC50 that approximates it; ≥ and ≤ were set here for values at or beyond the usual limits of such assays
HLA-B*46:01 [6] = experiment: as above; details: source organism: Homo sapiens
HLA-B*18:01 = experiment: as above
HLA-B*51:01 [7] = experiment: as above; details: source organism: Homo sapiens
HLA-B*27:03 = experiment: as above
HLA-A*69:01 [8] = experiment: as above; details: source organism: Homo sapiens
HLA-B*57:01 [9] = experiment: as above; details: source organism: Homo sapiens
HLA-B*39:01 = experiment: as above
HLA-B*15:17 = experiment: as above; details: source organism: Homo sapiens
HLA-A*11:01 = experiment: IEDB peptide-MHC binding, purified MHC/direct/fluorescence; filed as Kd, often an IC50 or EC50 that approximates it; ≥ and ≤ were set here for values at or beyond the usual limits of such assays
HLA-A*03:01 = experiment: as above
HLA-A*24:02 = experiment: IEDB peptide-MHC binding, purified MHC/competitive/fluorescence; ≥ and ≤ were set here for values at or beyond the usual limits of such assays; details: source organism: Sudan ebolavirus
HLA-A*31:01 = experiment: IEDB peptide-MHC binding, purified MHC/direct/fluorescence; filed as Kd, often an IC50 or EC50 that approximates it; ≥ and ≤ were set here for values at or beyond the usual limits of such assays; details: source organism: Zaire ebolavirus
HLA-A*01:01 = experiment: as above; details: source organism: Zaire ebolavirus
HLA-B*46:01 [10] = experiment: as above; details: source organism: Zaire ebolavirus
HLA-A*69:01 [11] = experiment: as above; details: source organism: Zaire ebolavirus
HLA-B*57:01 [12] = experiment: as above; details: source organism: Zaire ebolavirus
HLA-B*27:05 = experiment: as above; details: source organism: Zaire ebolavirus
HLA-A*02:11 = experiment: as above; details: source organism: Zaire ebolavirus
HLA-A*02:12 = experiment: as above; details: source organism: Zaire ebolavirus
HLA-B*58:01 = experiment: as above; details: source organism: Zaire ebolavirus
HLA-A*24:03 = experiment: as above; details: source organism: Zaire ebolavirus
HLA-A*29:02 = experiment: as above; details: source organism: Zaire ebolavirus
HLA-B*15:01 [13] = experiment: as above; details: source organism: Zaire ebolavirus
HLA-A*68:02 = experiment: as above; details: source organism: Zaire ebolavirus
HLA-B*48:01 = experiment: as above; details: source organism: Zaire ebolavirus
HLA-A*02:01 = experiment: IEDB peptide-MHC binding, purified MHC/competitive/fluorescence; filed as Kd, often an IC50 or EC50 that approximates it; ≥ and ≤ were set here for values at or beyond the usual limits of such assays; details: source organism: Zaire ebolavirus
[14] = source organism: Mycobacterium tuberculosis variant bovis BCG str. Pasteur 1173P2
[15] = source organism: Vibrio vulnificus
[16] = source organism: Vaccinia virus WR
[17] = source organism: Vaccinia virus Copenhagen
[18] = source organism: Camelpox virus CMS
[19] = source organism: Vaccinia virus
[20] = source organism: Zaire ebolavirus
[21] = source organism: Brucella abortus

Sequence: HPVTATISF
- Kd (HLA-B*83:01; [14]): 0.616 µM
- Kd (HLA-B*45:06; [14]): ≥ 5 µM
- Kd (HLA-B*15:42; [14]): ≥ 5 µM

Sequence: NAFGWENAY
- Kd (HLA-B*51:01 [1]; [15]): ≥ 20 µM
- Kd (HLA-B*07:02; [15]): 0.35 µM
- Kd (HLA-B*15:01 [2]; source organism: Vibrio vulnificus YJ016): 1.32 µM

Sequence: RGRKRFHTL
- Kd (HLA-B*08:01 [3]; source organism: Vibrio vulnificus CMCP6): 0.009 µM
- Kd (HLA-B*08:02): 6.76 µM

Sequence: NKFFEVIFF
- Kd (HLA-B*15:03; [16]): 0.0188 µM

Sequence: FKFNSQVSI
- Kd (HLA-B*15:03; [16]): 0.00124 µM

Sequence: AKSKFPRSM
- Kd (HLA-B*15:03; [16]): 0.000261 µM

Sequence: SQVSSTELF
- Kd (HLA-B*15:03; [16]): 0.00183 µM

Sequence: SPGIRPRFL
- Kd (HLA-A*30:01; [17]): 8.43 µM
- Kd (HLA-B*08:01 [4]; [17]): 0.0558 µM
- Kd (HLA-A*32:01; [17]): 2.81 µM
- Kd (HLA-B*15:03; [17]): 10.3 µM
- Kd (HLA-B*15:01 [5]; [17]): 1.92 µM

- Kd (HLA-A*26:01; source organism: Homo sapiens): ≥ 20 µM
- Kd (HLA-B*46:01 [6]): ≥ 20 µM
- Kd (HLA-B*18:01; source organism: Homo sapiens): ≥ 20 µM
- Kd (HLA-B*51:01 [7]): ≥ 20 µM
- Kd (HLA-B*27:03; source organism: Homo sapiens): ≥ 20 µM
- Kd (HLA-A*69:01 [8]): ≥ 20 µM
- Kd (HLA-B*57:01 [9]): ≥ 20 µM
- Kd (HLA-B*39:01; source organism: Homo sapiens): ≥ 20 µM
- Kd (HLA-B*15:17): ≥ 20 µM
- Kd (HLA-B*15:01 [2]; source organism: Homo sapiens): ≥ 20 µM
Sequence: SLGDPLHQA

Sequence: RQSSCKMAL
- Kd (HLA-B*15:03; [16]): 0.0188 µM

Sequence: LPDLPTTTI
- Kd (HLA-B*51:01 [1]; source organism: Staphylococcus aureus): 0.922 µM

Sequence: LMYPTTLLK
- Kd (HLA-A*11:01; [18]): 0.0022 µM
- Kd (HLA-A*03:01; [18]): 0.0045 µM
- Kd (HLA-B*83:01; [16]): ≥ 5 µM
- Kd (HLA-B*45:06; [16]): ≥ 5 µM
- Kd (HLA-B*15:42; [16]): ≥ 5 µM

Sequence: HLYNILNNI
- Kd (HLA-A*30:01; [16]): 1.45 µM
- Kd (HLA-B*08:01 [4]; [16]): 1.97 µM
- Kd (HLA-A*32:01; [16]): 0.0726 µM
- Kd (HLA-B*15:03; [16]): 1.4 µM
- Kd (HLA-B*15:01 [5]; [16]): 1.48 µM

Sequence: QTIVFIWFI
- Kd (HLA-A*30:01; [19]): 6.24 µM
- Kd (HLA-B*08:01 [4]; [19]): 16.9 µM
- Kd (HLA-A*32:01; [19]): 1.76 µM
- Kd (HLA-B*15:03; [19]): 1.03 µM
- Kd (HLA-B*15:01 [5]; [19]): 0.253 µM

Sequence: LIPFLILFI
- Kd (HLA-A*30:01; [17]): 0.097 µM
- Kd (HLA-B*08:01 [4]; [17]): 0.0497 µM
- Kd (HLA-A*32:01; [17]): 12.1 µM
- Kd (HLA-B*15:03; [17]): 0.195 µM
- Kd (HLA-B*15:01 [5]; [17]): 0.471 µM

Sequence: KTLKYSNKI
- Kd (HLA-A*30:01; [16]): 0.0375 µM
- Kd (HLA-B*08:01 [4]; [16]): 1.18 µM
- Kd (HLA-A*32:01; [16]): 0.0019 µM
- Kd (HLA-B*15:03; [16]): 0.448 µM
- Kd (HLA-B*15:01 [5]; [16]): 0.123 µM

Sequence: KSVEDVSAF
- Kd (HLA-B*15:03; [16]): 0.0136 µM

Sequence: YDRLASTVI
- IC50 (HLA-A*24:02): 2.49 µM
- Kd (HLA-A*31:01): ≥ 20 µM
- Kd (HLA-A*01:01): ≥ 20 µM
- Kd (HLA-A*11:01; [20]): ≥ 20 µM
- Kd (HLA-A*03:01; [20]): ≥ 20 µM
- Kd (HLA-B*46:01 [10]): ≥ 20 µM
- Kd (HLA-A*69:01 [11]): ≥ 20 µM
- Kd (HLA-B*08:01 [3]; [20]): ≥ 20 µM
- Kd (HLA-B*57:01 [12]): ≥ 20 µM
- Kd (HLA-B*27:05): ≥ 20 µM
- Kd (HLA-A*02:11): ≥ 20 µM
- Kd (HLA-A*02:12): ≥ 20 µM
- Kd (HLA-B*58:01): ≥ 20 µM
- Kd (HLA-A*24:03): ≥ 20 µM
- Kd (HLA-A*29:02): ≥ 20 µM
- Kd (HLA-B*15:01 [13]): ≥ 20 µM
- Kd (HLA-A*68:02): ≥ 20 µM
- Kd (HLA-B*48:01): ≥ 20 µM
- Kd (HLA-B*07:02; [20]): ≥ 20 µM
- Kd (HLA-A*26:01; [20]): ≥ 20 µM
- Kd (HLA-B*18:01; [20]): ≥ 20 µM
- Kd (HLA-A*02:01): ≥ 20 µM
- Kd (HLA-B*27:03; [20]): ≥ 20 µM
- Kd (HLA-B*39:01; [20]): ≥ 20 µM

Sequence: ALTKNYLSF
- Kd (HLA-B*15:03; [16]): 0.0401 µM

Sequence: VSFSPSLTF
- Kd (HLA-A*32:01; [17]): 0.736 µM
- Kd (HLA-B*15:03; [17]): 0.00122 µM
- Kd (HLA-B*15:01 [5]; [17]): 0.00126 µM

Sequence: RPNPDFNTF
- Kd (HLA-B*51:01 [1]; [21]): ≥ 20 µM
- Kd (HLA-B*07:02; [21]): 0.0126 µM
- Kd (HLA-B*15:01 [2]; source organism: Brucella melitensis bv. 1 str. 16M): 3 µM
